Results: US20240327489A1

What was measured:
[1] = target: putative Btnl2 receptor on activated CD4+ T cells; assay: cell-based or functional assay
[2] = target: putative Btnl2 receptor on activated CD4+ T cells; assay: flow cytometry, Fc-fusion staining of activated mouse CD4+ T cells at 72 hours

cytokine production of activated CD4+ T cells after 72 hours of culture [1]: > 40%
decrease in binding with CD28 co-stimulation (α-CD3/α-CD28 against α-CD3 alone) [2]: 50%
Substance: mouse Btnl2-Fc (from UniProt O70355 24-454) (Fc fusion)
